In patent publication US20240108702A1, “Use Of Naturally Occurring Cyclic Peptides For Treatment Of SARS-COV-2 Infection” (The University of Southern California, priority 2021, published 2024):
Several values for one entry are separate records, joined by “and”; a condition that tells them apart may be missing. Equal entries are not always repeated. Entries after “also recorded” stand apart in the source; their conditions may differ. Where no end group is shown, it is not given here. [ ]: non-standard residue; d: D form. 14C‑Gly = 14C labelled glycine

What was measured:
[1] = tested on: SARS-CoV-2; assay: Antiviral assay, SARS-CoV-2 replication in Calu3 2B4 cells (RT-qPCR); assay type: cell-based; details: 24 h
[2] = molecular target: T1, TMPRSS2 (Homo sapiens, UniProt O15393); assay: Cellular TMPRSS2 inhibition assay in Caco-2 cells; assay type: cell-based; set-up: using Caco-2 and Calu3 cells, both of which express surface TMPRSS2; endogenous in cells; host or cells: Caco-2 cells
Protocol: Caco-2 cells (1×10^5 per well) were incubated in 96 well plates with 0 to 50 μg/ml of the indicated peptide in the presence of a TMPRSS2 substrate (Boc-Leu-Gly-Arg-AMC) in 50 mM Tris-HCl, pH 7.4. Substrate conversion was monitored in a fluorescence plate reader for 2 hours and inhibition of enzyme activity was expressed relative to a solvent control.
(§1) TMPRSS2 inhibition assays. Peptides (0-50 μg/ml) were tested for their inhibitory activities against TMPRSS2 in cellular assays using Vero E6 cells, Caco-2 cells, or Calu-3 cells using standard conditions. TMPRSS2 activity was assayed in real time for 120 min by monitoring the cleavage of the TMPRSS2 substrate, Boc-Leu-Gly-Arg-AMC. Following the 2 h enzyme assay, cells were evaluated for viability using the CellTiter-Glo cellular toxicity assay.

[3] = molecular target: T1, TMPRSS2; assay: Cellular TMPRSS2 inhibition assay in Calu3 cells; assay type: cell-based; set-up: endogenous in cells; host or cells: Calu3 (Calu-3) cells; details: Calu3 cells
Protocol: as §1

[4] = Biodistribution of 14C-radiolabeled Peptide 1 in female rats; assay type: in vivo, SD rats
Protocol: Biodistribution [^14C]-radiolabeled Peptide 1 (SEQ ID NO. 1) in female rats: Five SD rats (195 and 200 g b.w.) with jugular vein catheters (JVC) were each injected with 200 μL of 5 mg/mL Peptide 1 (SEQ ID NO. 1) in saline containing ˜4 million CPM of [^14C]-Peptide 1. The ^14C-Peptide 1 (SEQ ID NO. 1) was created by substituting the natural glycine residue on position 1 of the cyclic peptide with a ^14C labeled glycine. The JVC line was cleaned with 70% isopropyl alcohol, and the line plug was removed. A new 25 G blunt needle with a 1 mL syringe containing injectable solutions was used for each injection. The JVC line was first cleared with 100 μL saline, followed by the Peptide 1 (SEQ ID NO. 1) solution, then cleared with an additional 100 μL of saline. Tissues and organs were harvested into separated vials and weighed. Small organs such as lymph nodes, kidneys, and heart/lungs were processed whole. Large organs (e.g., liver, muscles, subcutaneous fat pads) were sampled from representative areas or those of interest (e.g., subcutis at the injection site). Organs were then dissolved in 2 mL Solvable™ (Perkin Elmer 6NE9100) for up to 1 g of tissue. For a large section of skin and other organs, 4 or 6 mL were added. Vials were incubated in a 60° C. water bath for 18-22 hours, then removed and allowed to cool to room temperature. […]

[5] = molecular target: TMPRSS2 (UniProt O15393 1-492, limits assumed); assay: cell-based or functional assay
Sequence of TMPRSS2 (UniProt O15393 1-492, limits assumed) (O15393 whole entry): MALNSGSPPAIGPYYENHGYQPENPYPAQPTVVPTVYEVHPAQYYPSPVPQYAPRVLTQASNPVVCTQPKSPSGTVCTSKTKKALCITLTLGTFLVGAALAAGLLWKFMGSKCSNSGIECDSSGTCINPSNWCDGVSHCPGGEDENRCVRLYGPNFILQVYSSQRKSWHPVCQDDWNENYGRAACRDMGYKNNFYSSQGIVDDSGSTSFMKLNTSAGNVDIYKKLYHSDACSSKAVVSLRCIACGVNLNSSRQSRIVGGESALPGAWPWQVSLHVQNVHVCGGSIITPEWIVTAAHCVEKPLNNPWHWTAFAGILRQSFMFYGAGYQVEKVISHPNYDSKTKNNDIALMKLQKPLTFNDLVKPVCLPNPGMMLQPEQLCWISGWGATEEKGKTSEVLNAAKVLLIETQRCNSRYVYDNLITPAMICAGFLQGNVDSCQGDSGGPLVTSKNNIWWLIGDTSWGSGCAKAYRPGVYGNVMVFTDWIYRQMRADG

T1 sequence (O15393 whole entry): as above

**Q.** For “Peptide 2: naturally occurring cyclic peptide (theta defensin), SEQ ID NO. 2, FIG. 1A (GVCRCLCRRGVCRCLCRR; cyclic; listed as Macaca mulatta)”, which “SARS-CoV-2 viral replication (N gene expression relative to ACTB)” value [1] is on record?
**A.** highly effective in blocking viral replication

**Q.** What does the source list for “Peptide 3: naturally occurring cyclic peptide (theta defensin), SEQ ID NO. 3, FIG. 1A (GFCRCICTRGFCRCICTR; cyclic; listed as Macaca mulatta)”?
**A.** inhibition of TMPRSS2 ([2]; Caco-2 cells, 0 to 50 μg/ml, FIG. 10): higher than Peptide 1; inhibition of TMPRSS2 [3]: similarly inhibited TMPRSS2

**Q.** Which results are given for “Peptide 5: naturally occurring cyclic peptide (theta defensin), SEQ ID NO. 5, FIG. 1B (GICRCLCRRGVCRCICVL; not fully specified (bridges); also: cyclic; listed as Macaca mulatta)”?
**A.** SARS-CoV-2 viral replication (N gene expression relative to ACTB) [1]: no apparent antiviral effect; also recorded: inactive; TMPRSS2 inhibitory activity ([2]; highest concentration tested (50 μg/mL), cell line not stated): no TMPRSS2 inhibitory activity

**Q.** With “^14C-Peptide 1: created by substituting the natural glycine residue on position 1 of the cyclic peptide with a 14C labeled glycine ([14C‑Gly]FCRCLCRRGVCRCICTR; not fully specified (bridges); also: cyclic; listed as Macaca mulatta)” as the molecule, how does the “tissue distribution (density of 14C)” value ([4]; 1 h after i.v. administration) read?
**A.** highest density measured in the liver, followed by the kidney

**Q.** What about the “14C counts recovered in urine” value ([4]; single i.v. dose equivalent to 5 mg/kg, 24 h) of the same molecule?
**A.** 7% and 8.5%

B1: Peptide 1 (SEQ ID NO. 1) (peptide)
peptide: cyclo(GFCRCLCRRGVCRCICTR)
modifications: disulfide (positions not given here); also: three disulfide bonds, pairing not given here
**Q.** Which “IC50 of enzyme inhibition (cleavage of Boc-Leu-Gly-Arg-AMC by cells)” value [5] does the source give for B1 here?
**A.** 6.5 to 8 µg/mL
